Experimental data reported in PMC7192592 (Nucleic Acids Research, 2020).

Experiments:
[1] = target: the molecule itself; experiment: FRET or BRET; donor- and acceptor-labeled cGAS^FL with 72-bp dsDNA, with or without Mn^2+ and/or Apcpp/Gpcpp (Supplementary Figure S2A)
[2] = target: the molecule itself; experiment: SEC; size-exclusion chromatography of cGAS^FL variants (Supplementary Figure S2B)

Protein | binding result [1] | stoichiometry N [2]
TAMRA- or Cy5-labeled cGAS^FL (1:1 mixture of donor- and acceptor-labeled populations) (enzyme, human, UniProt Q8N884 2-522, looked up, TAMRA or Cy5 label (site not stated)) QPWHGKAMQRASEAGATAPKASARNARGAPMDPTESPAAPEAALPKAGKFGPARKSGSRQKKSAPDTQERPPVRATGARAKKAPQRAQDTQPSDATSAPGAEGLEPPAAREPALSRAGSCRQRGARCSTKPRPPPGPWDVPSPGLPVSAPILVRRDAAPGASKLRAVLEKLKLSRDDISTAAGMVKGVVDHLLLRLKCDSAFRGVGLLNTGSYYEHVKISAPNEFDVMFKLEVPRIQLEEYSNTRAYYFVKFKRNPKENPLSQFLEGEILSASKMLSKFRKIIKEEINDIKDTDVIMKRKRGGSPAVTLLISEKISVDITLALESKSSWPASTQEGLRIQNWLSAKVRKQLRLKPFYLVPKHAKEGNGFQEETWRLSFSHIEKEILNNHGKSKTCCENKEEKCCRKDCLKLMKYLLEQLKERFKDKKHLDKFSSYHVKTAFFHVCTQNPQDSQWDRKDLGLCFDNCVTYFLQCLRTEKLENYFIPEFNLFSSNLIDKRSKEFLTKQIEYERNNEFPVFDEF | binds | –
K173E/R176E-cGAS^FL (enzyme, human, UniProt Q8N884 2-522, looked up) QPWHGKAMQRASEAGATAPKASARNARGAPMDPTESPAAPEAALPKAGKFGPARKSGSRQKKSAPDTQERPPVRATGARAKKAPQRAQDTQPSDATSAPGAEGLEPPAAREPALSRAGSCRQRGARCSTKPRPPPGPWDVPSPGLPVSAPILVRRDAAPGASKLRAVLEKLELSEDDISTAAGMVKGVVDHLLLRLKCDSAFRGVGLLNTGSYYEHVKISAPNEFDVMFKLEVPRIQLEEYSNTRAYYFVKFKRNPKENPLSQFLEGEILSASKMLSKFRKIIKEEINDIKDTDVIMKRKRGGSPAVTLLISEKISVDITLALESKSSWPASTQEGLRIQNWLSAKVRKQLRLKPFYLVPKHAKEGNGFQEETWRLSFSHIEKEILNNHGKSKTCCENKEEKCCRKDCLKLMKYLLEQLKERFKDKKHLDKFSSYHVKTAFFHVCTQNPQDSQWDRKDLGLCFDNCVTYFLQCLRTEKLENYFIPEFNLFSSNLIDKRSKEFLTKQIEYERNNEFPVFDEF | – | 2
human full-length cGAS (cGAS^FL), wild-type (enzyme, UniProt Q8N884 2-522, looked up) QPWHGKAMQRASEAGATAPKASARNARGAPMDPTESPAAPEAALPKAGKFGPARKSGSRQKKSAPDTQERPPVRATGARAKKAPQRAQDTQPSDATSAPGAEGLEPPAAREPALSRAGSCRQRGARCSTKPRPPPGPWDVPSPGLPVSAPILVRRDAAPGASKLRAVLEKLKLSRDDISTAAGMVKGVVDHLLLRLKCDSAFRGVGLLNTGSYYEHVKISAPNEFDVMFKLEVPRIQLEEYSNTRAYYFVKFKRNPKENPLSQFLEGEILSASKMLSKFRKIIKEEINDIKDTDVIMKRKRGGSPAVTLLISEKISVDITLALESKSSWPASTQEGLRIQNWLSAKVRKQLRLKPFYLVPKHAKEGNGFQEETWRLSFSHIEKEILNNHGKSKTCCENKEEKCCRKDCLKLMKYLLEQLKERFKDKKHLDKFSSYHVKTAFFHVCTQNPQDSQWDRKDLGLCFDNCVTYFLQCLRTEKLENYFIPEFNLFSSNLIDKRSKEFLTKQIEYERNNEFPVFDEF | – | 2
